For 2 molecules, IC50 and Ka results are on record in paper PMC2188280 (The Journal of Experimental Medicine, 1987).

The labels stand for the following.
B1: CD2, purified, detergent-solubilized (receptor, human (endogenous in Jurkat or SKW3), UniProt P06729 25-351, looked up)
chain: KEITNALETWGALGQDINLDIPSFQMSDDIDDIKWEKTSDKKKIAQFRKEKETFKEKDTYKLFKNGTLKIKHLKTDDQDIYKVSIYDTKGKNVLEKIFDLKIQERVSKPKISWTCINTTLTCEVMNGTDPELNLYQDGKHLKLSQRVITHKWTTSLSAKFKCTAGNKVSKESSVEPVSCPEKGLDIYLIIGICGGGSLLMVFVALLVFYITKRKKQRSRRNDEELETRAHRVATEERGRKPHQIPASTPQNPATSQHPPPPPGHRSQAPSHRPPPPGHRVQHQPQKRPPAPSGTQVHQQKGPPLPRPRVQPKPPHGAAENSLSPSSN
B2: lymphocyte function-associated antigen 3 (LFA-3) on human erythrocytes (ligand, human (endogenous in erythrocytes), UniProt P19256 29-250, looked up)
chain: FSQQIYGVVYGNVTFHVPSNVPLKEVLWKKQKDKVAELENSEFRAFSSFKNRVYLDTVSGSLTIYNLTSSDEDEYEMESPNITDTMKFFLYVLESLPSPTLTCALTNGSIEVQCMIPEHYNSHRGLIMYSWDCPMEQCKRNSTSIYFKMENDLPQKIQCTLSNPLFNTTSSIILTTCIPSSGHSRHRYALIPIPLAVITTCIVLYMNGILKCDRKPDRTNSN

Assay [1] concerns the target B2. Description: flow cytometry on cells. On the technique in general: A flow cytometer gives signals particle by particle.
Assay [2] has as its target B1. Description: flow cytometry on cells.

A word on the IC50: it is the point on the concentration scale where inhibition reaches its midpoint. A high value points to weaker potency in that assay. In the case of B1, the IC50 in assay [1] is approximately 0.03 µM.

As to B2, the Ka in assay [2] is approximately 3e+07 M⁻¹.
